From paper PMC5666746 come the findings set out here.

One may read the Kd as the constant that tells how readily two partners part at equilibrium. The term koff denotes the first-order rate constant of dissociation. By kon is commonly meant the rate constant with which the complex forms.

In this assay the target is recombinant extra-cellular domain sequence of DR5 (sDR5) protein (human). As to the kind of experiment: BLI; ForteBio Octet QKe; biotinylated sDR5 loaded on streptavidin sensors at 1 μM; scFv at two-fold serial dilutions 93.75-6000 nM in SD Buffer (PBS, pH 7.4, 0.02% Tween 20, 0.1% BSA); association 5 min, dissociation 10 min. (In BLI a coated tip is dipped into the sample, and binding shifts an interference pattern.)
Sequence of recombinant extra-cellular domain sequence of DR5 (sDR5) protein (human) (O14763 whole entry, the tested form may be a part): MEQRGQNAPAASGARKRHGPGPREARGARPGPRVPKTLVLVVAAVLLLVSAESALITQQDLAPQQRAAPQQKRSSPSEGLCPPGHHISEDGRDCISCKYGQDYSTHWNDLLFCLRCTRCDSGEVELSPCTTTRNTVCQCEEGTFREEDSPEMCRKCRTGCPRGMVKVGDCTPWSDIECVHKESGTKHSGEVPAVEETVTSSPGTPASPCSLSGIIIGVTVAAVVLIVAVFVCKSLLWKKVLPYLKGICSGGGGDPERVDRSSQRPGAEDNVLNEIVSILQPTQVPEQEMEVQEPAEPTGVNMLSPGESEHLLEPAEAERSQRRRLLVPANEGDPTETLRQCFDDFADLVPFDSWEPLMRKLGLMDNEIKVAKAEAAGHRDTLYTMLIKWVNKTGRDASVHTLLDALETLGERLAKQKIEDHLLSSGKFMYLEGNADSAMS

B1: TR2-3, fully human agonistic anti-DR5 single chain fragment variable (scFv) antibody (scFv)
scFv: QVQLQESGPGLVKPSGTLSLTCAVSGGSISSSNWWSWVRQPPGKGLEWIGEIYHSGSTNYNPSLKSRVTISVDKSKNQFSLKLSSVTAADTAVYYCARGAAAGTANDAFDIWGQGTMVTVSSGGGGSGGGGSGGGGSETTLTQSPGILSLSPGERASLSCRASQSVPHNYLAWYQQKPGQAPRLLIYGASNRATGIPDRFSGSGSETDFTLTVTRLAPEDFAVYYCQQYGRSLTFGGGTKVEIKR
Turning to B1, the Kd came out at 126 nM, the koff came out at 0.00144 s⁻¹ and the on-rate (kon) was determined as 11500 M⁻¹ s⁻¹.
